Source: publication doi:10.1101/2024.10.04.616694
Like-named read-outs stand apart in the source and are kept apart here.

Assays:
Assay in all cases: AUC
[1] = biological target: EGFP (Aequorea victoria)
[2] = biological target: EGFP (Aequorea victoria); remark: listed apart in the source
[3] = biological target: EYFP (Aequorea victoria)
[4] = biological target: EYFP (Aequorea victoria); remark: listed apart in the source

## EGFP
[1]
  stoichiometry N: 2
[2]
  stoichiometry N: 2

## EYFP
[3]
  stoichiometry N: 2
[4]
  stoichiometry N: 2
